Legend:
[1] = molecular target: BTN3A2 overexpressed on BT474 cells (BT474-BTN3A2) (Homo sapiens (Human), UniProt P78410 30-334); assay: flow cytometric adhesion assay, murine LSECtin-Fc detected with anti-IgG
From the text: (§1) 3. Each cell in the step 2 was obtained by digestion and collection, and then was adhered to human LSECtin protein (R&D, 2947-CL) and mouse LSECtin-Fc protein, respectively, and the human LSECtin adhesion rate was detected by mouse anti-human LSECtin antibody CCB059. […] mouse LSECtin adhesion rate was detected by anti-IgG (Biolegend, 405307), and the adhesion ratio was detected by flow cytometry. Details of adhesion assay have been published in the method of “Tang L, Yang J, Tang X, et al. The DC-SIGN family member LSECtin is a novel ligand of CD44 on activated T cells[J], European journal of immunology. 2010, 40(4): 1185-1191”.

[2] = molecular target: T1, BTN3A1 overexpressed on BT474 cells (BT474-BTN3A1) (UniProt O00481 30-513, limits assumed); assay: as above
T1 construct: whole, on cells; Expressed from pIRES2-EGFP-BTN3A1 in BT474 cells
From the text: as §1

[3] = molecular target: T1, BTN3A1 overexpressed on BT474 cells …; assay: flow cytometric adhesion assay, human LSECtin detected with antibody CCB059
From the text: as §1

T1 sequence (O00481 30-513 limits assumed): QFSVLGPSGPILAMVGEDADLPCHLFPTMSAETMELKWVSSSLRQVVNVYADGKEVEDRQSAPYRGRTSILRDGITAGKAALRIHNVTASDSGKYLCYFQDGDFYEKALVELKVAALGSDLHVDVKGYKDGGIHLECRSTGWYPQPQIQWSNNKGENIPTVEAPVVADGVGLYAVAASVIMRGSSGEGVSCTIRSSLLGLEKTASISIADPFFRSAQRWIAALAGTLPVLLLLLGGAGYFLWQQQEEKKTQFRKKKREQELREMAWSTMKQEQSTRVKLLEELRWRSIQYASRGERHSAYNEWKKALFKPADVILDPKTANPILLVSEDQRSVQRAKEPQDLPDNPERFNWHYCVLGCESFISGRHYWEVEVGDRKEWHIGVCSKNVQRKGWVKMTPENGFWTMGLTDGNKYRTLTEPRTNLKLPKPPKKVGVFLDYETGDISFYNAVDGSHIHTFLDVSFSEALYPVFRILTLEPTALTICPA
Sequence of BTN3A2 overexpressed on BT474 cells (BT474-BTN3A2) (P78410 30-334 limits assumed): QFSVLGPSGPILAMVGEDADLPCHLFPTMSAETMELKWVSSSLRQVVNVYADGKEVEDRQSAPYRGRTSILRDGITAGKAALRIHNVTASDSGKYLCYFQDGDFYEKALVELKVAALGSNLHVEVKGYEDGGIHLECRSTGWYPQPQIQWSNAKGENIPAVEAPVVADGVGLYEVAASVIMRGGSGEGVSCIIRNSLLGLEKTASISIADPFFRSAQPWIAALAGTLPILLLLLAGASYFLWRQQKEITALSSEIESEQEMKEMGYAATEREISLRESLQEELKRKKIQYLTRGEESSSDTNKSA

| binding result [1] | binding result [2] | binding result [3] | Binder |
| --- | --- | --- | --- |
| no binding | no binding | – | mouse LSECtin-Fc protein (Fc fusion, UniProt Q8BNX1 52-294, looked up, also called murine LSECtin-Fc; murine LSECtin; not shown: Fc part) LLSSASSKLRVLLSHQDLLRTNASEQKMTLSSLKDDIGACRNCCSVTKAQLQTTLAEFKDIQAKLMEQESILKELQERVTQDLAKASRDRENIRSELFQALEAVKRQNSSCEQCPPSWLPFQGSCYYFSETQATWDTAQSYCGGQGAHLVIVRGLNEQGFLSQHTRGRGYWLGLRAVRHLNKIQGYRWVDGASLNFSHWNSGEPNDSRGHEDCIMMLHSGLWNDAPCTNERDGWICEKRSSCY |
| – | – | no binding | human LSECtin protein (R&D, 2947-CL) (ligand, Bought recombinant protein (R&D 2947-CL); also called human recombinant protein LSECtin; Liver Sinusoidal Endothelial Cells lectin) SKASTERAALLDGHDLLRTNASKQTAALGALKEEVGDCHSCCSGTQAQLQTTRAELGEAQAKLMEQESALRELRERVTQGLAEAGRGREDVRTELFRALEAVRLQNNSCEPCPTSWLSFEGSCYFFSVPKTTWAAAQDHCADASAHLVIVGGLDEQGFLTRNTRGRGYWLGLRAVRHLGKVQGYQWVDGVSLSFSHWNQGEPNDAWGRENCVMMLHTGLWNDAPCDSEKDGWICEKRHNC |
